# From US20260242478A1 (published 2026)
# Where no end group is shown, it is not given here.
# B1: Phage-534 (peptide)
# peptide: YCDGHSPLYMWKCL
# modifications: cysteine pairing not given here; also: displayed on phage as fusion to pIII, linker, pIII sequence and order not given here
# notes: Clonal phage supernatant; not shown: pIII filament protein of the bacteriophage to which the peptide is fused
# B2: Phage-537 (peptide)
# peptide: YCEGHSWANLGKCL
# modifications: cysteine pairing not given here; also: displayed on phage as fusion to pIII, linker, pIII sequence and order not given here
# notes: as for B1
# B3: Phage-531 (peptide)
# peptide: YCDGHSPMYILKCL
# modifications: cysteine pairing not given here; also: displayed on phage as fusion to pIII, linker, pIII sequence and order not given here
# notes: as for B1
# B4: Phage-528 (peptide)
# peptide: YCDGHLPQYMAKCL
# modifications: cysteine pairing not given here; also: displayed on phage as fusion to pIII, linker, pIII sequence and order not given here
# notes: as for B1
# B5: Phage-533 (peptide)
# peptide: YCEGHLPQYMAKCL
# modifications: cysteine pairing not given here; also: displayed on phage as fusion to pIII, linker, pIII sequence and order not given here
# notes: as for B1
# B6: Phage-535 (peptide)
# peptide: YCDGHLPMYMQKCL
# modifications: cysteine pairing not given here; also: displayed on phage as fusion to pIII, linker, pIII sequence and order not given here
# notes: as for B1
# B7: Phage-539 (peptide)
# peptide: YCEGHLPEYMLKCL
# modifications: cysteine pairing not given here; also: displayed on phage as fusion to pIII, linker, pIII sequence and order not given here
# notes: as for B1
# B8: Phage-529 (peptide)
# peptide: YCQGHLPMYMAKCL
# modifications: cysteine pairing not given here; also: displayed on phage as fusion to pIII, linker, pIII sequence and order not given here
# notes: as for B1
# B9: Phage-532 (peptide)
# peptide: YCQGHLPMYMEKCL
# modifications: cysteine pairing not given here; also: displayed on phage as fusion to pIII, linker, pIII sequence and order not given here
# notes: as for B1
# B10: Phage-538 (peptide)
# peptide: YCDGHLPEYREKCF
# modifications: cysteine pairing not given here; also: displayed on phage as fusion to pIII, linker, pIII sequence and order not given here
# notes: as for B1
# B11: Phage-989 (peptide)
# peptide: YCAGHSEEYMDKCL
# modifications: cysteine pairing not given here; also: displayed fused to phage pIII protein, fusion end and linker not given here
# notes: Clonal phage of the peptide-87 library, tested as crude supernatant; not shown: fused to the pIII filament protein of the bacteriophage
# B12: Phage-983 (peptide)
# peptide: YCDGHLPMYMKKCL
# modifications: cysteine pairing not given here; also: displayed fused to phage pIII protein, fusion end and linker not given here
# notes: as for B11
# B13: Phage-988 (peptide)
# peptide: YCDGHFLTYMTKCL
# modifications: cysteine pairing not given here; also: displayed fused to phage pIII protein, fusion end and linker not given here
# notes: as for B11
# B14: Phage-987 (peptide)
# peptide: YCDGHSPLYMVKCL
# modifications: cysteine pairing not given here; also: displayed fused to phage pIII protein, fusion end and linker not given here
# notes: as for B11
# B15: Phage-986 (peptide)
# peptide: YCDGHSQEYMAHCL
# modifications: cysteine pairing not given here; also: displayed fused to phage pIII protein, fusion end and linker not given here
# notes: as for B11
# B16: Phage-985 (peptide)
# peptide: YCEGHLDMYVWKCL
# modifications: cysteine pairing not given here; also: displayed fused to phage pIII protein, fusion end and linker not given here
# notes: as for B11
# B17: Phage-984 (peptide)
# peptide: YCQGHLPQYVEKCL
# modifications: cysteine pairing not given here; also: displayed fused to phage pIII protein, fusion end and linker not given here
# notes: as for B11
# Molecular target: T1, Anti-CD28 Fab (SEQ ID NOs: 696, 697)
# T1 construct: In the phage ELISA the Fab was biotinylated and captured on neutravidin coated plates
# Test: phage ELISA; biotinylated anti-CD28 Fab on neutravidin plates, bound phage detected with anti-M13-HRP
# T1 sequence (VH, as listed by the source, chain 1 of 2): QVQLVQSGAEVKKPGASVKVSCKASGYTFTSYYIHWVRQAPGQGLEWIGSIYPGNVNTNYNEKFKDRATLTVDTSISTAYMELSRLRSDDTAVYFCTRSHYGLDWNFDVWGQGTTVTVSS
# T1 sequence (VL, as listed by the source, chain 2 of 2): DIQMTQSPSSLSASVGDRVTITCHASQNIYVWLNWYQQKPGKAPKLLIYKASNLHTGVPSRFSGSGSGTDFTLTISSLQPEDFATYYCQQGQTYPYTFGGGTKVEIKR
# Method: (§1) After panning, phage infected bacteria were plated out and colonies picked into 96 well blocks. Clonal phage was then amplified and separated from bacterial cells via centrifugation.
# (§2) Clonal phage were harvested as crude supematants and screened via standard ELISAs. […] Prior to the addition of clonal phage, wells were incubated with blocking buffer and CD28 antigen or blocking buffer alone. Without washing or aspirating, clonal phage supematants were then added to the wells and incubated for a short time. Wells were then washed followed by detection of bound phage using a horse radish conjugated anti-M13 antibody. Clonal phage of interest were then sent for sequence analysis.
row,Binder,"Phage binding ELISA, Anti-CD28 Fab signal"
1,YCEGHLSQYMQKCL (Tested as clonal phage supernatant) [Phage-709],2
2,YCVGHLPQYMEKCL (Tested as clonal phage supernatant) [Phage-717],1.98
3,YCDGHLGIYMTKCL (Tested as clonal phage supernatant) [Phage-718],1.98
4,YCDGHSQEYIAKCL (Tested as clonal phage supernatant) [Phage-715],1.99
5,YCDGHLPQYMSKCL (Tested as clonal phage supernatant) [Phage-712],2
6,YCDGHMPQYMSKCL (Tested as clonal phage supernatant) [Phage-716],1.98
7,YCEGHAAEYMMKCL (Tested as clonal phage supernatant) [Phage-713],1.99
8,YCDGHSDQYMWKCL (Tested as clonal phage supernatant) [Phage-711],2
9,YCEGHLAEYMDKCL (Tested as clonal phage supernatant) [Phage-722],1.96
10,YCDGHLPIYMTQCL (Tested as clonal phage supernatant) [Phage-721],1.97
11,YCDGHSPIYMSKCL (Tested as clonal phage supernatant) [Phage-710],2
12,YCDGHLWEYMDKCL (Tested as clonal phage supernatant) [Phage-719],1.97
13,YCEGHLPMYFLKCM (Tested as clonal phage supernatant) [Phage-720],1.97
14,YCAGHLPMYMHKCL (Tested as clonal phage supernatant) [Phage-714],1.99

# Molecular target: T2, Anti-CD28 Fab (SEQ ID NOs: 696, 697)
# T2 construct: Biotinylated and captured on neutravidin coated plates in the phage ELISA
# Test: phage binding ELISA; Fab wells pre-incubated with CD28 antigen as competitor, anti-M13 HRP
# T2 sequence (VH, as listed by the source, chain 1 of 2): as the sequence (VH, as listed by the source, chain 1 of 2) above
# T2 sequence (VL, as listed by the source, chain 2 of 2): as the sequence (VL, as listed by the source, chain 2 of 2) above
# Method: as §1, §2
row,Binder,Anti-CD28 Fab signal in the presence of CD28
1,B1,0.08
2,B2,0.08
3,B3,0.08
4,B4,0.15
5,B5,0.14
6,B6,0.11
7,B7,0.09
8,B8,0.08
9,B9,0.09
10,B10,0.07

# Molecular target: T1, Anti-CD28 Fab (SEQ ID NOs: 696, 697)
# Test: phage ELISA; Fab-coated wells pre-incubated with CD28 antigen as competitor, anti-M13-HRP detection
# Method: as §1, §2
row,Binder,"Phage binding ELISA, Anti-CD28 Fab signal in the presence of CD28"
1,YCEGHLSQYMQKCL (Tested as clonal phage supernatant) [Phage-709],0.09
2,YCVGHLPQYMEKCL (Tested as clonal phage supernatant) [Phage-717],0.08
3,YCDGHLGIYMTKCL (Tested as clonal phage supernatant) [Phage-718],0.08
4,YCDGHSQEYIAKCL (Tested as clonal phage supernatant) [Phage-715],0.07
5,YCDGHLPQYMSKCL (Tested as clonal phage supernatant) [Phage-712],0.1
6,YCDGHMPQYMSKCL (Tested as clonal phage supernatant) [Phage-716],0.08
7,YCEGHAAEYMMKCL (Tested as clonal phage supernatant) [Phage-713],0.07
8,YCDGHSDQYMWKCL (Tested as clonal phage supernatant) [Phage-711],0.11
9,YCEGHLAEYMDKCL (Tested as clonal phage supernatant) [Phage-722],0.07
10,YCDGHLPIYMTQCL (Tested as clonal phage supernatant) [Phage-721],0.08
11,YCDGHSPIYMSKCL (Tested as clonal phage supernatant) [Phage-710],0.09
12,YCDGHLWEYMDKCL (Tested as clonal phage supernatant) [Phage-719],0.06
13,YCEGHLPMYFLKCM (Tested as clonal phage supernatant) [Phage-720],0.06
14,YCAGHLPMYMHKCL (Tested as clonal phage supernatant) [Phage-714],0.18

# Molecular target: T3, Anti-CD28 Fab (SEQ ID NOs: 696, 697)
# T3 construct: In the phage ELISA the Fab was biotinylated and captured on neutravidin coated plates
# Test: phage binding ELISA; biotinylated anti-CD28 Fab on neutravidin plate, clonal phage supernatant, anti-M13 HRP detection
# T3 sequence (VH, as listed by the source, chain 1 of 2): as the sequence (VH, as listed by the source, chain 1 of 2) above
# T3 sequence (VL, as listed by the source, chain 2 of 2): as the sequence (VL, as listed by the source, chain 2 of 2) above
# Method: as §1, §2
row,Binder,Anti-CD28 Fab signal (phage binding ELISA)
1,B11,1.55
2,B12,1.57
3,B13,1.56
4,B14,1.56
5,B15,1.56
6,B16,1.56
7,B17,1.57

# Molecular target: T2, Anti-CD28 Fab (SEQ ID NOs: 696, 697)
# Test: phage binding ELISA; biotinylated Fab on neutravidin plate, clonal phage supernatant, anti-M13 HRP;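 also: clones picked after panning, added to wells pre-incubated with CD28 antigen or with blocking buffer only, no wash before phage addition, bound phage read after washing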
# Method: as §1, §2
row,Binder,"Anti-CD28 Fab (SEQ ID NOs: 696, 697) signal"
1,B1,2.34
2,B2,2.32
3,B3,2.34
4,B4,2.35
5,B5,2.34
6,B6,2.33
7,B7,2.32
8,B8,2.34
9,B9,2.34
10,B10,2.32

# Molecular target: T3, Anti-CD28 Fab (SEQ ID NOs: 696, 697)
# Test: phage binding ELISA; Fab-coated wells pre-incubated with CD28 antigen as competitor, anti-M13 HRP detection;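 also: crude clonal phage supernatants from panned colonies added to wells after blocking buffer plus CD28 treatment, bound phage measured after a brief incubation and washing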
row,Binder,Anti-CD28 Fab signal in the presence of CD28
1,B11,0.05
2,B12,0.1
3,B13,0.07
4,B14,0.06
5,B15,0.07
6,B16,0.08
7,B17,0.08
